Test results published in paper PMC6704105.

Biological target: PRMT5 (UniProt O14744)
Experiment: co-IP with anti-PRMT5, JDP2 blot
Settings: reference: wild-type JDP2; sites T116

JDP2 (from UniProt Q8WYK2) JDP2 T116A
binding against the reference: lost
